The domain aggregation screens of Martell et al. (2025)

Test: soluble fraction after stress (log2 fold change); higher = more stays soluble; pooled small domains, quantitative proteomics
Details: stress: pH 4
Procedure, shortened: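 With high-throughput quantitative proteomics, pooled custom libraries of small protein domains were measured after pH 4 stress. Each domain's soluble amount after the stress gives a fold change taken as aggregation propensity. Higher log2 values mean more of the domain stayed soluble.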

Row | Sequence | soluble fraction (log2)
1 | HMQGATVYIKSDDIGKTTNEQGSFNFDKLKKNRYTLEISFIGYETKNLQAYTDRENIVQLNRKS | -0.527
2 | HMQGEVPYSQFLTEVDRGDVQSVVIEGNNISGFYKNSSTAFTVVAPDDPKLVERLMEQGVEVKARPV | ≥ 0.43
3 | HMQGEVVTNRSVIDMSRAGLSADIIRAKILRSDTNFDVTAKALIELKESGVPDDIIALMLERADS | -0.218
4 | HMQGIPVTVTAERANLRSGPGTSFDKLGQVVQGDVLTLLEVQNDWYKVKTAEGKTAFVAAYLVNSP | 0.0179
5 | HMQGQADFTQGIANFTQYPVGSRITVFTLEGRRVAVVEIGKDGTAQLDMRNKPAGVYIVNTGKQSFKWLK | -0.0678
6 | HMQGRIYLNPDLAEKLRAQYAAYPHWSYLLHTENLGALVRKTESLGPMPSYSTILRYMHANDMRKRNKP | -0.149
7 | HMQGVNLTETEKNFIAQVLSPLLKQGQSLYQIRTNHPEIKLSVKTLYTYIESGIFKESGINNFSLRRQ | -0.319
8 | HMQILNVFSKHGIKPISPQIGDKFDPQLHEAMFEAPVPGTKAGDIIEVSSEGFMLYDRLLRPAHVGVSSN | -0.138
9 | HMQILPAFLPENPELRARLANHSLEELTEILKQYKTLHNSTDVDTVKRAIRAIEIEEYYAVHPV | -0.635
10 | HMQINLKQSSDEELVKIITVQVHHYEPHTVKAAEAEIERRGIDKMRMAHLVKKVAQENTAVQEIQD | 0.134
11 | HMQISDDSELIKIVDNILANSQKQIDDYHNGKTNLFGFFVGQVMKETKGKANPVKVNEILKDKL | 0.102
12 | HMQISDSSLIAKTVATVILENPEAVSDYLGGKHSVVRFMVGQIMKKTQGKANPKMATEMLETALNDL | 0.352
13 | HMQISDTTELSTLITKVLSEQSDALVDFKNPKKQKQVIGYLTGQVLRASQGKANPGLVRSLLEEQLSALDS | 0.0677
14 | HMQISMQNIASVKIDDLSDEQIQEFSTKYTAAGYSFPDVENVAKQKGMPSSEIEKLRQRVLTAQNTQEK | -0.346
15 | HMQISSSEVLEKVVDEILSANPKSIEDYKNGKLQAAGFLMGQVMKATKGQANPAVAKELIEAKLKD | 0.124
16 | HMQISYDVPNLIGKSYEEVMTDPSILGEHFTVVLGETKTDEDTDAGVILHQDPAADSKVQDEVTPITVTVS | 0.0589
17 | HMQITDTEAIATTLDEIIAANPKEWERLKAGQEQLVKFFVGQVMRVTKGRANPQVVNDLLKERL | 0.186
18 | HMQITNEGQIKLVISEVLNENQEQKKQYLSGKEQVLGYLIGKVMQKTKGKANPKLVNDLMIKELS | 0.217
19 | HMQITSTDEIEKMIDELIAANPEQTKQYQNGNHKVAGWFVGQMMKASKGKANPQMVNNLLQKKL | 0.166
20 | HMQITTVSPKNYAEAELIGQRFREGNPVVMDLSKLDSDLGQRLVDFASGLVFALNGTVERIAKKVFLLSP | -0.748
21 | HMQIVHKHLQLQPDQGALRAALYSHKAVVAEQVNEQGAINLEIKLAESDFLRLLKSSGLKLQDLVSLS | -1.16
22 | HMQKAQEYILVDIKGEVQTPGVYKLPVNSRVIDAIEASGGLTKKAVTTYINLSKTLKDENVIIINKKSEL | -0.0717
23 | HMQKITPDNWTYIRSLIRQKWSPDQIDQWLKKHPDVGFTVSRETIYQYVKEDRQKDGDLYLSLRRAGKSY | -1.11
24 | HMQKLKINKYKDPKGEIRYYIASTIRNGNKSSTHNLLSLGKHSDLLKEHSDVEAYLKERLNEAMESGI | 0.307
25 | HMQKPDIEVDFAEGDMVVVTGGAWKDTAGVITGINMQKQTVTINVELFGRETPVEISFTEIKKA | -0.799
26 | HMQKVPDAFKAEQVQTLITRLGVSRAELARTLDVSLSTVNKWASGAVEPKGSALVLLKVLWMHGFKAL | 0.03

Row | Sequence | soluble fraction (log2)
27 | HMQLDDDQKEELILKLIDSLDTTKKGAPLTELAREAAKSNIGESELEEITTSLLDKGLVYEPTIGKMKR | 0.0111
28 | HMQLDLNENEKIIFEILQNNKTMQLSNLKTQTELSNKGWDKAIKSLTKQGLAKVSKIDNELIVEFL | -0.723
29 | HMQLKFTDLRKEILRMIWEGHGPQKAYDLLNKLQQTNPSAKPATVYRALDFLIGNGFIHKVASLNAFVG | -0.942
30 | HMQLKKDTILSYIEEKLIDSYNSNKGFTTQEISVALNMQRTNVSAILNNLVKENKLVKTKGKPVRYFLSG | -1.02
31 | HMQLTPAQHAILAHALEHSDGKIVWFPDNIKGGARKKVLDGLLNRALITTDGTDWFVAAEGYDAMGR | 0.063
32 | HMQLTVAVLIKNISKGQVISQGFLGFEARPERQIRGAYTNISEVLGRKAKSNIAVGTILKARHLDT | -0.49
33 | HMQNAMQKELIDAFQKAYPDLDITKIELVYGTYYEVEAMNSTTEFTYRYDQNSKTFILAEQDNADP | -0.0395
34 | HMQNELAEARSQLAERKNIDQAKLILMKKRNISEPEAYKLLRSHAMQTNRRVAEVAESIITAESLLG | 0.0831
35 | HMQNGNLVDVYLNWRGKYYAIKMFFPNSKMPRRSDVQDQIVKVYPDARVQSFQVSKYVPGQPFL | -0.431
36 | HMQNLSELAYVNLRDALMQGQMKPGEELPLRPISRSFGISATPMREALLRLVTESALEMDSRGRISVP | -0.183
37 | HMQNPYDTLGVSRDSTDAEIKKAYRKLAMEHHPDKGGDSQRFAEINNAYDNIKDMSSRQNFENDPSNFQ | 0.186
38 | HMQNVFARKNLTSVSVDKLGEEEILLFKQSFESKNLTSSEALRDLSKKGMSEAELRKLKVRLTQL | -0.177
39 | HMQNWFADPKFEMFEDYGDAQSFYDTETKNIYVVMAEYGQKGSNTIQEITPDSEEYIPNYEKYKEYMENK | -1.42
40 | HMQNYLEFIGNELKALTSIPSPSGYTKDVAAYLMKTLSDMGYEPQLSNKGNVFVTIGGEGNPLVLAAHVD | -0.436
41 | HMQNYLEVLRLHELGMGQRKIAQQVHTSRDTIRKIIAIAENQGLNYSNLIGKTDNELSKVFG | 0.0958
42 | HMQPAGEGAILRYLSSGAVKGIGPVMAREIVRRFGTDTFRVMEQEPEKLLKVKGITEQRLQTIMESYQD | 0.145
43 | HMQPDPAFVAWVDANPWYKENRTLRALVHDYAEEVKRQEPALIGTAFLDRVKQLVQSEHPELFD | -0.502
44 | HMQPETIEDATNLYLEAARATLQLIEQNNVIARDVKRLLEHLDNDMARIETLLAEMLSRRDHWLRHIH | 0.185
45 | HMQPIQPNQAKYLDGLSSKYKGKGNHSQAAQLTALRDALNAGDHAKAREIYDKLDYEPQAEAAH | 0.105
46 | HMQPNVTRERILAAAMTVFAQKGWQKTSLDEVAAAAGMTKGAIYWHFRNKNDLFFALLDARLQRD | -1.08
47 | HMQQAVTMQKPGRLLRNADGNGGAVRDLDVGMMLYPTGNRSELMWEVDDELGNRGWVNSTLFGLS | -0.585
48 | HMQQDGSSSLGENMLNQELQARGVVPSEIPQEVWERVIQEAGKKSKREIYADIGLGRSLAAGFAQRLAA | -0.0576
49 | HMQQDVLKLKSGGNYKGEYINIESAYVLFKPEGGNATQRIKVNEIQMLKLADGTEVIFGGRVK | 0.297
50 | HMQQEPNFYIVDGNTNQIVDRYYAPDSNVAHQYLGQWRQQHDPQETGNYRYGRLSSETEERYRNLAA | 0.188
51 | HMQQFGANVRLIRKARQMSIKQLSELSGVSQTMISEVERGLKIPTIDVAGKIAAALGIDLTNLMG | 0.0733
52 | HMQQIQILPDGKIKLPDLSGTNMREAIEILHKGGLRMKPYGSGNAYQQKPAAGETVASGTTVEVLSL | 0.0974

Row | Sequence | soluble fraction (log2)
53 | HMQQLAEQIPTDRPYISIAEAVVLFGISRDTIYRQIRKGNIPAVNLGERLTRISRIHIEAMFPKV | -0.282
54 | HMQQNYREMHKVKKGETLFGIARRYEITVDQLIKANPDMNAVGYELKKGDYIFIPYPDGQKP | -0.116
55 | HMQRAEQLPAELAAVFRAETEAWGFFERQPPGYQRVAIHWVASAKQEATRLRRLAKLIEESAAGRR | -1.43
56 | HMQRDTIAISAIPTAIKTYLSSTYPTDTLVHAFVNKDQSIVVISKNIDFYATSFSTANAFIKRIQLPA | 0.156
57 | HMQRFIHITVSDVHQATRLLEEEMQLTNYSVAENNAIKIFEFTYEPQEINHLFGKNGIEVSSLFIGS | -0.345
58 | HMQRNLILKLDTDQPEIYKKLESIFVEINGLLVPFFIEKIIWSKQDSLNILFKNSSEALVEQLIGKNVFLP | 0.0162
59 | HMQRSVNYSELHEIKERVFDALYSSPMSMPDLLAWLKGDEEHTISVIRLMQDNGDIEMGEDGRLAVV | -0.629
60 | HMQSISLEEAKSAALDDAQLGIDEVEFLKTERNTDGDTSYYDIQFLVNGTIYKYQINTETGAILHVDYEA | -0.511
61 | HMQSITAGDKVRVKNYTVSGGKKRGKVYGGAGTFVVYYEKYDVISVTGDRVVIGIGKAVTAAVHIDDLEK | -0.932
62 | HMQSKSEINELPKSIHMAFSPKNFELFIDNLKINEIDFSNWKGELNTIQERVDGQRQIWIQDPQGYWIEIN | -0.335
63 | HMQSLIVPVPKPEDDPVYKDGIKQDPVEVVSIWLGRDYLNMILNLKVSTGKGHTFGIVEDVS | -0.383
64 | HMQSNDTAEIEAVVKEIMAANERVVNDYRSGNTKVVSFFVGQVMKATKGKANPKVVNEVLAKLLK | 0.169
65 | HMQSVPELDQQFKIAIENNDFIKLAQLKEQGYHPSKEVMQSLSNTTPNNTIIAVQKIFGLKA | -0.185
66 | HMQSVSANSVQKQLADIIDGEDKTHPLSDRELTEKLVAQGVQISRRTVAKYREAMGIPGASGRKQ | 0.107
67 | HMQTAAANPSPESILQAREAAGLSQSEAGALIYSGLRSWQHWEWGTRRMHPGLFELFLKKTGQI | -1.02
68 | HMQTKMVYSDLVNSIKSEQVSSMLVSGNTVTVTLTNGDKAKVKIPSLDTLQADVGKEMNDQMDKGTLKQE | -0.123
69 | HMQTKNYVYFNNTENWSTVNVYVWSSKDSTYMSWPGKAMESIGNNTYRFELPNGAEYAIFNNGSAQTVD | -0.185
70 | HMQTKSDMVYHRVREDIVNGVFAPGERLLISAVAKQYGVSEIPVREAFRVLSQEGFLKTRPNSGFVVS | -0.294
71 | HMQTMTAGERREAILRELEQAQGPVSASALAKRFHVSRQAVVGDVAMLRALNSPIAATPRGYVLTR | 0.0633
72 | HMQTMTDDQVMQYVISQQEKGATQQDIVSKLLQKGVTVDQMRRIRKKYEAQQSQPGALDLTGSS | -0.0786
73 | HMQTNEAIINQAVQAAEAQNITTRSQAVDALKANGMTEAQARQLAVQRGISYDQLINELFPME | 0.108
74 | HMQTPVTVGDTMPNLIGTPKRLLLELLNRTDITVKLTGDGYVTAQSPAAGTPIAKGMIIELSL | 0.19
75 | HMQTQVEVLVKYVLEDGTVYKEDKVSADIGAILDSGDLPMLSNDMKFIDDFLFYEVKESDNVIERKVAKLV | -1.41
76 | HMQTQYIVDTKTTLLVRTGPGKSNSQFGRLKNGETINVYAIKNGWAEISYNGKTGYVSEQYIKLA | 0.327
